# According to the nanobody polyreactivity screen of Harvey et al. (2022):
# Assay: yeast display, Sf9 membrane polyspecificity reagent, FACS + sequencing; frameworks hold sequencing errors
# Summary of the method: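 A nanobody's polyreactivity label depends on the gate it was sorted from. Yeast display cells were stained with 10% biotinylated, detergent-solubilized Sf9 membrane reagent for 1 hour at 4 °C, enriched on streptavidin microbeads and sorted by FACS. The low and high (top ~1%) gates were set on anti-HA fluorescence for expression and streptavidin fluorescence for reagent binding.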
row,Sequence,polyreactivity (PSR sort gate)
1,QVQLGESGGGLVQAGRSLRLSCAASGSTIGPDAMGWYRQAPGTERELVAAIRYSSVRTYYADSVKGRFTISRDNAKNSVYVQMNSLKPEDTAVYYCNAVFWSYTVWGRSDYWGQGTQVTVSS,low polyreactivity
2,QVQLGESGGGLVQAGVSLRLSCAASGSLFYHNAMGWYRHAPGKERELVAAISGRGGSTYYADSVKGRFTISRDNAKNTVYLQMNSLKPEDTAVYYCAADARYQNGGLYYWGQGTQVTVSS,high polyreactivity
3,QVQLGESGGGLVQSGGSLRLSCAASGRIFDLNAMGWYRPAPGKERELVAAISYSDGSTYYADSVKGRFTISRDNEKNTVYLQMNSLKTEDTAVYYCAADFFDRTYITWYEYWGQGTQVTVSS,high polyreactivity
4,QVQLGESGGVLVQAGGSLRLSCAASGRIFSENAMGWYRQATGKEWELVAAITGNGGDTYYADSVKGRFTISRDTAKNTVYLQMNSLKPEDTAVYYCAAETGGLGGDYWGQGTQVTVSS,low polyreactivity
5,QVQLGESRGGIVQAGGSLRLSCAASGSTFSYYAMGWYRQAPGKARELVAAISNRGGSTYYADSVKGRFTISRDNAKNTVYLQMNSLKPEDTAVYYCAAYYVFGYSTSGDYWGQGTQVTVSS,high polyreactivity
6,QVQLGESRGGLVQAGGSLRLSCAASGRTFTGYAMGWYRQAPGKERELVAAITVSSGRTYYADSVKGRFTISRDNAKNTVYLQMNSLKPEDTAVYYCAKRFRSTHLWKFGGYDYWGQGTQVTVSS,high polyreactivity
7,QVQLGESVGGLVQAGGSLRLSCAASGRIFEPYAMGWYRQAPGKESELVAAINSGGSTNYADSVKGRFTISRDNAKNTVYLQMNSLKPEDTAVYYCNKGQNIRQSPGDYWGLGTQVTVSS,low polyreactivity
8,QVQLHESAGGLEQAGGCLSCTASGTIFGQGDMCWYLQAPGKEPELVGTINDGASTYYADSVKGRFTISRDKAKNTVYLQKNSLKPADTAVYYCSVFTDITTYFGYWGQGTQVTVSS,low polyreactivity
9,QVQLHESGGGLVQAGGGLRLSCAASGSISSTGFMGWYRQAPGKEREPVAAIAPGTTTYYADSVKGRFTISRDNAINTVYLQMNSLRPEDTAVYYCAVFTDNRVAFLYWGQGTQVTVSS,low polyreactivity
10,QVQLHESGGGLVQAGGGLRLSSAASGSISSTGFMGWYRQAPGKEREPVAAIAPGTTTYYADSVKGRFTISRDNAKNTVYLQMNSLRPEDTAVYYCAVFTDNRVAFLYWGQGTQVTVSS,low polyreactivity
11,QVQLHESGGGLVQAGGSLRLSCAASGTISYAGPMGWYRQAPGKEREFVAGIGVGSNTNYADSVKGRYTIIRDNAKNTVYLQMNSLNPEDTAVYYCAVGGYDPLGRPYWGQGTQVTVSS,low polyreactivity
12,QVQLIESGGGLVQAGGSLRLSCAASGSSLYYYALGWYRQAPGKEREWVAAISSSDGRTYYADSVKGRFTISRDNAKNTVYVQMNSLKPEDTAVYYCNAAVYAHRYIYGFDYWGQGTQVTVSS,high polyreactivity
13,QVQLKESVGGLVQAGGILRLSCAASGNIFPTDRMAWYRQAPGTELEFVATISHGGSTNYADSVKGRFTISRDNSKNTLYLQMNSLKPEDTAVYYWWGWSLGRWRHYYWGQGTQVTVSS,low polyreactivity
14,QVQLLESGDGLVQAVGSLRLSCAASGYISGYYYMGWYRQAPGKERELVAGIDAFGSSTNYADCVKGRFTISRDNAINSVYLQMNSLKPEDTAVYYCAARPDGDRLFSYWGQGTQVTVSS,low polyreactivity
15,QVQLLESGGALVQAAGSLRLSCAASGYTIGRYAIGWYRHAPGKDRELVAAITWSGGSTYYADSVKGRFTISRDNAKNTVYLQMNSLKPEDTAVYYCAKRYRYYSYGPYGMYYWGQGTQVSVSS,high polyreactivity
16,QVQLLESGGGIVQAGGSLRLSCAASGRINAMGWYRQAPGKERELVAVITLRGGSTYYADSVKGRFTISRDNAKNTVYLQMNSLKPEYTAVYYCAAVYRWPDAKYDYWGQGTQVSVSS,low polyreactivity
17,QVQLLESGGGIVQAGGSLRLSCGASGSTFTLNAMGWYRQAPGTEREFVADISWSSGRTYYADSVKGRFTISRDNAKNTVYVQMNSLKQEDTAVYYCATDDFWNVKFYAYYPEFDYWGQGTQVNVSS,low polyreactivity
18,QVQLLESGGGLDKAGVRIRLSCASSGIIFAWYAMVWYRQAHRKEMELVAAISWSCGSTYYAYSVKLRFTISRDNAKNTVDLQMNSLTPEDTAVYYCATYPRRQGKYAYWGQGTQVTVSS,high polyreactivity
19,QVQLLESGGGLFQAGGSLRLSCAASGRIFDPYAMGWYRKAPWKETELVAAISWRGGSTNYADSVKGRFTISRDNAKNTVYLQMNSLKPEDTAVYYCAAVPVRYRYSYGYYYWGQGTQVTVSS,high polyreactivity
20,QVQLLESGGGLFQPGGSLRLSCAASGRTFDGNVMGWYRQAPGKETELVAAITASGGRTYYADSVKGRFTISSDNAKNTVYLQMNSLKAEDTAVYYCNAGIRRSRGTMDYWGQGTQVTVSS,high polyreactivity
21,QVQLLESGGGLLQAGGSLRLSCAASGLTFGKYAMGWYRQAPGKERELVAAINSSGGSTYYADSVKGRFTISRDNAKNTVYLQMNSLKPEDSAVYYRAVAVYRLIYFVYNYWGQGTQVTVSS,low polyreactivity

row,Sequence,polyreactivity (PSR sort gate)
1,QVQLLESGGGLVHSGGSLRLSCASSGRIFPSNTMGSYRPAPGKERELVADISFGGGSTSYADSVKGRFTISRDNAKNTVYLQMNRLKPEDTAVYYCNADRDDDYDYWGQGTQVTLSS,low polyreactivity
2,QVQLLESGGGLVQAGASLRLSCAASGSIFLPNAMGWSRQAPGKERELVAAISWSGGSTYADSVKGRITISRDNAKNTVYLQMNILKPEDTAFYFCAADDGFTPRDLYVCYDYWGQGTQVTVSS,low polyreactivity
3,QVQLLESGGGLVQAGCSLRLSCAASGFTFKSNAMGWYRQAPGKESELVARINRSGGSTYYADSVKGRFTISRYNAKNTVYLQMNSLKPEDTAVYYCARGRYTLYESKYDYWGQGTQVTVSS,high polyreactivity
4,QVQLLESGGGLVQAGGCLRLSCAASGFTFYGYARGWYRQAPGIERELVAGIAKCGTRTYYADSLKGRFTISRDNAENTVFFQMNSLKPEDTAVYYCAARLRRGLTATWYYYWGQGSQVTVSS,high polyreactivity
5,QVQLLESGGGLVQAGGSLGCAASGNISTRSEMGWYRQAPGKEREFVATINSGGITNYADSVKGRFTISRDNENNTVYLGMNSLKPEDTAVYYRAVYVYFSDPYDYWGQGTQVTVSS,low polyreactivity
6,QVQLLESGGGLVQAGGSLRLSCAASGFIICYNGMGWYRQAPGKERELVAGITYSDGSTYYADSVKGRFTISRDNAKITVYLQMNSLKPEDTAVYYCAVDVFYYWAEDYDYWGQGTQVTVSS,low polyreactivity
7,QVQLLESGGGLVQAGGSLRLSCAASGFNFGVYAMGWYRQAPGKERELVAAITRSGGSTYYADSVKGRYTISRDNAKNSVYLQMNSLNPEDTAVYYCAARARDHYGYWGQGTQVSVSS,high polyreactivity
8,QVQLLESGGGLVQAGGSLRLSCAASGFTFNPYAMGWYRQAPGKERELVARISRGTSTNYADSVKGRFTISRDNAKNTVYLQMNSLKPEDTAVYYCAASYGSFHTYLDYNYWGQGTQVTVSS,low polyreactivity
9,QVQLLESGGGLVQAGGSLRLSCAASGFTFYRYAMGWYRQAPGKERELVAVISGSGTSTYYADSVKGRFTISRDIAKNTVYLQMNSLKQEDTAVYYCAASQSIFSGHVRYRVDYDSWGQGTQVSVSS,high polyreactivity
10,QVQLLESGGGLVQAGGSLRLSCAASGFTLAFNAMGWYRQAPGKERELVASITSSSGSTYYADSVKGRFTISRDNAKNTVYLQLNSLKPEDTAVYYCARDLAIPQVLSQPIFGYWGQGTQVTVSS,low polyreactivity
11,QVQLLESGGGLVQAGGSLRLSCAASGGIFPAYAMGWYRQAPGKERELFADITNGGSTYYADSVKGRFTISRDNAKNTVYLQMNSLKPEDTAVYYCNAREFWRTRFGCGYPYRRNMDYWGQGTQVTVSS,low polyreactivity
12,QVQLLESGGGLVQAGGSLRLSCAASGIIFSSNAMGWYRKAPGKERELVAAITRRGGSTRYADSVKGRFTISRDNAKNTVYLQMNSLKPEDTAVYYCNALSGYPYRWGISYPMDYWGQGTQVTVSS,high polyreactivity
13,QVQLLESGGGLVQAGGSLRLSCAASGIIFVRYVMGWYRQAPVKERELVAAINWSGGSTYYADSVKGRFTISRDNAKNTVYLQMNSLKPEDTAVYYCAAGSARDDDYWGQGTQVTVSS,high polyreactivity
14,QVQLLESGGGLVQAGGSLRLSCAASGNTFYPNAMGWYRPAPGKETELVAAISSSGGSTYYADSVKGRFTISRDNAKNTVYLQMKSLNPEDTAVYYCASEFDYPLSGEYYYWGKGTQVTVSS,high polyreactivity
15,QVQLLESGGGLVQAGGSLRLSCAASGRILTGYAMGWYRQAPGKERELFSSINWRGGSTYYADSVKGRFTISRDNAKNTVYLQMISLIPEDTAVYYCAARVLVTGTYYTIYDYWGQCTQVTVSS,high polyreactivity
16,QVQLLESGGGLVQAGGSLRLSCAASGSISVAYAMGWYRQAPGKERELVATIRSGDSTYYADSVKGRFTISRDNAKNTVYLQMNSLKPEDTAVYYCNADATDSYPEKDEHDSWGQGTQVTVSS,low polyreactivity
17,QVQLLESGGGLVQAGGSLRLSCAASGSTFASYAMGWYRQAPGKETELVAAITRTGSTYYADSVKGRFTISRDNAKNTVYLQMNSLKPEDTAVYYCAKLWIGGYKYYYWGQGTQVTVSS,high polyreactivity
18,QVQLLESGGGLVQAGGSLRLSCAASGSTFRYYAMGWYRQAPGKERELVAAISKSGGRTYYADSVKGRFTISRDNAKHTVYLQMNSLKPEDTAVYYCAADSKEVRYDYWGQGTQVTVSS,high polyreactivity
19,QVQLLESGGGLVQAGGSLRLSCAASGSTFYCYTMGWYRQAPGKERELVARISSSGSTNYADSVKGRFTISRDNAKNTVYLQMNSLKPEDTAVYYCNKDWIYRGYDYWGQGTQVTVSS,high polyreactivity
20,QVQLLESGGGLVQAGGSLRLSCAASGYTFASYAMGWYRQAPGKERELVASISNGGGTNYADSVKGLFRISRDNAKNTVYLQMNSLKPEDTAVYYCAKRYRYYSHSYYYWGQCTQVTVSS,high polyreactivity
